The results in this text go back to paper PMC10299155, “Single-Molecule Analysis of the Improved Variants of the G-Quadruplex Recognition Protein G4P”.

For series [1], the system named is T1, G4P (artificial (RSM derived from human RHAU/DHX36)).
T1 sequence: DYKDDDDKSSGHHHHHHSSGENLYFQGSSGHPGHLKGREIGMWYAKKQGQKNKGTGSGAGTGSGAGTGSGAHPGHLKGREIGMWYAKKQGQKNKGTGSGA
Briefly: smTIRFM (koff/kon). Conditions: EMSA: DNA annealed in 200 mM Tris pH 7.4, 100 mM KCl, 1 mM EDTA; binding 10 min at 25 C, native PAGE; smTIRFM: 100 pM tethered DNA, 100-5000 pM protein, buffer …. (In general: In EMSA bound probe runs differently from free probe, usually more slowly.)

Series [2] concerns T2, FJG4P (artificial (motif derived from human FANCJ)).
T2 sequence: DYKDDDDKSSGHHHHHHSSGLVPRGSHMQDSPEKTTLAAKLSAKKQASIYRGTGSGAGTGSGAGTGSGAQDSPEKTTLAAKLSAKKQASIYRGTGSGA
Briefly: smTIRFM (koff/kon). To be noted: EMSA: DNA annealed in 200 mM Tris pH 7.4, 100 mM KCl, 1 mM EDTA; binding 10 min at 25 C, native PAGE; smTIRFM: 100 pM tethered DNA, 100-5000 pM protein, buffer ….

Series [3] has as its system T3, 2FJG4P (artificial (motif derived from human FANCJ)).
T3 sequence: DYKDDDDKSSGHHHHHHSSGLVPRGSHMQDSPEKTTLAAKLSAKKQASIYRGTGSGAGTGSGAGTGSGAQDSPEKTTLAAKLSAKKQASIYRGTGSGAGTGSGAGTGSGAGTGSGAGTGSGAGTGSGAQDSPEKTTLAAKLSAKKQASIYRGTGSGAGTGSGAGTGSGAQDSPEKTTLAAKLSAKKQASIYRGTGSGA
Description: smTIRFM (koff/kon). Conditions: EMSA: DNA annealed in 200 mM Tris pH 7.4, 100 mM KCl, 1 mM EDTA; binding 10 min at 25 C, native PAGE; smTIRFM: 100 pM tethered DNA, 100-5000 pM protein, buffer ….

Series [4] has as its target T4, G4P (artificial (RSM derived from human …)).
T4 chain: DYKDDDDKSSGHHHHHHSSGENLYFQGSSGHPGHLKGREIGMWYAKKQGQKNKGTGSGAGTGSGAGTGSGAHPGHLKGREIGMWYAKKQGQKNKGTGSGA
Briefly: smTIRFM (koff/kon); kon 2.16e9 M-1 s-1, koff 0.61 s-1; EMSA: DNA annealed in 200 mM Tris pH 7.4, 100 mM KCl, 1 mM EDTA; binding 10 min at 25 C, native PAGE; smTIRFM: 100 pM tethered DNA, 100-5000 pM protein, buffer. Conditions: protein: recombinant; tags: N-terminal FLAG-6xHis; label: 3' biotin on strand 2; 18 bp duplex with 3' ssDNA tail folded as parallel G4.

Series [5] has as its target T5, FJG4P (artificial (motif derived from human …)).
T5 chain: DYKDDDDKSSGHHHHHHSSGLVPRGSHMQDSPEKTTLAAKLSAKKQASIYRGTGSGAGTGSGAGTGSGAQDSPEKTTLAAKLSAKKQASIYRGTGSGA
Briefly: smTIRFM (koff/kon); kon 3.45e9 M-1 s-1, koff 0.94 s-1; EMSA: DNA annealed in 200 mM Tris pH 7.4, 100 mM KCl, 1 mM EDTA; binding 10 min at 25 C, native PAGE; smTIRFM: 100 pM tethered DNA, 100-5000 pM protein, buffer. Conditions: protein: recombinant; tags: N-terminal FLAG-6xHis; label: 3' biotin on strand 2; 18 bp duplex with 3' ssDNA tail folded as parallel G4.

Series [6] deals with T6, 2FJG4P (artificial (motif derived from human …)).
T6 chain: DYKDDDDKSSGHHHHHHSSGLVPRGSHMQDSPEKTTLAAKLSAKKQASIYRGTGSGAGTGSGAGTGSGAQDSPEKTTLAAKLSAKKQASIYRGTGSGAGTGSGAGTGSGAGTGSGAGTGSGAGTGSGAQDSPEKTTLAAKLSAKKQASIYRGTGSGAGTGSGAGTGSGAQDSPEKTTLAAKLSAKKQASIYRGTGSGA
Description: smTIRFM (koff/kon); kon 4.7e9 M-1 s-1, koff 1.0 s-1; EMSA: DNA annealed in 200 mM Tris pH 7.4, 100 mM KCl, 1 mM EDTA; binding 10 min at 25 C, native PAGE; smTIRFM: 100 pM tethered DNA, 100-5000 pM protein, buffer. Conditions: protein: recombinant; tags: N-terminal FLAG-6xHis; label: 3' biotin on strand 2; 18 bp duplex with 3' ssDNA tail folded as parallel G4.

For series [7], the target named is T7, 2G4P (artificial (RSM derived from human …)).
T7 chain: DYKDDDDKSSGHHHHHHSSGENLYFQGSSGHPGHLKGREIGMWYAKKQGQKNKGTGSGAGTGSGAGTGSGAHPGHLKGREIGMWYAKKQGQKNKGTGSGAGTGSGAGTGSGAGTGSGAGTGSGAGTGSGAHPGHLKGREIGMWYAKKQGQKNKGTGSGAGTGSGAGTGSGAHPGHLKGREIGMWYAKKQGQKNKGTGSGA
Description: smTIRFM (koff/kon); kon 3.9e9 M-1 s-1, koff 0.62 s-1; EMSA: DNA annealed in 200 mM Tris pH 7.4, 100 mM KCl, 1 mM EDTA; binding 10 min at 25 C, native PAGE; smTIRFM: 100 pM tethered DNA, 100-5000 pM protein, buffer. Conditions: protein: recombinant; tags: N-terminal FLAG-6xHis; label: 3' biotin on strand 2; 18 bp duplex with 3' ssDNA tail folded as parallel G4.

Series [8] concerns the target T7, 2G4P. Description: mass photometry; higher molecular weight complexes; EMSA: DNA annealed in 200 mM Tris pH 7.4, 100 mM KCl, 1 mM EDTA; binding 10 min at 25 C, native PAGE; smTIRFM: 100 pM tethered DNA, 100-5000 pM protein, buffer. Conditions: protein: recombinant; tags: N-terminal FLAG-6xHis; two G4s, mixed topology.
For series [9], the target named is T6, 2FJG4P. Briefly: mass photometry; largest network size; EMSA: DNA annealed in 200 mM Tris pH 7.4, 100 mM KCl, 1 mM EDTA; binding 10 min at 25 C, native PAGE; smTIRFM: 100 pM tethered DNA, 100-5000 pM protein, buffer. Conditions: protein: recombinant; tags: N-terminal FLAG-6xHis; two G4s, mixed topology.
In series [10] the target is T5, FJG4P. Description: smTIRFM (koff/kon); kon 0.01e9 M-1 s-1, koff 0.33 s-1; EMSA: DNA annealed in 200 mM Tris pH 7.4, 100 mM KCl, 1 mM EDTA; binding 10 min at 25 C, native PAGE; smTIRFM: 100 pM tethered DNA, 100-5000 pM protein, buffer. Conditions: protein: recombinant; tags: N-terminal FLAG-6xHis; label: 3' biotin on strand 2; 18 bp duplex with 3' ssDNA tail folded as G4, mixed topology.

Series [11] concerns the target T7, 2G4P. Briefly: smTIRFM (koff/kon); kon 0.0845e9 M-1 s-1, koff 0.29 s-1; EMSA: DNA annealed in 200 mM Tris pH 7.4, 100 mM KCl, 1 mM EDTA; binding 10 min at 25 C, native PAGE; smTIRFM: 100 pM tethered DNA, 100-5000 pM protein, buffer. To be noted: protein: recombinant; tags: N-terminal FLAG-6xHis; label: 3' biotin on strand 2; 18 bp duplex with 3' ssDNA tail folded as G4, mixed topology.

The target in series [12] is T6, 2FJG4P. Briefly: smTIRFM (koff/kon); kon 0.0339e9 M-1 s-1, koff 0.4 s-1; EMSA: DNA annealed in 200 mM Tris pH 7.4, 100 mM KCl, 1 mM EDTA; binding 10 min at 25 C, native PAGE; smTIRFM: 100 pM tethered DNA, 100-5000 pM protein, buffer. To be noted: protein: recombinant; tags: N-terminal FLAG-6xHis; label: 3' biotin on strand 2; 18 bp duplex with 3' ssDNA tail folded as G4, mixed topology.

The target in series [13] is T4, G4P. Description: smTIRFM (koff/kon); kon 0.43e9 M-1 s-1, koff 0.67 s-1; EMSA: DNA annealed in 200 mM Tris pH 7.4, 100 mM KCl, 1 mM EDTA; binding 10 min at 25 C, native PAGE; smTIRFM: 100 pM tethered DNA, 100-5000 pM protein, buffer. To be noted: protein: recombinant; tags: N-terminal FLAG-6xHis; label: 3' biotin on strand 2; 18 bp duplex with 3' ssDNA tail folded as G4, mixed topology.

Series [14] deals with T4, G4P. Description: EMSA; EMSA: DNA annealed in 200 mM Tris pH 7.4, 100 mM KCl, 1 mM EDTA; binding 10 min at 25 C, native PAGE; smTIRFM: 100 pM tethered DNA, 100-5000 pM protein, buffer. Conditions: protein: recombinant, tags: N-terminal FLAG-6xHis.
Series [15] concerns the target T6, 2FJG4P. The series is described as above. To be noted: protein: recombinant; tags: N-terminal FLAG-6xHis; label: 3' 6-FAM; intramolecular parallel G4.
Series [16] concerns the target T7, 2G4P. The description is as above. To be noted: protein: recombinant, tags: N-terminal FLAG-6xHis.
Series [17] addresses T5, FJG4P. Described as above. Conditions: protein: recombinant; tags: N-terminal FLAG-6xHis; label: 3' 6-FAM; intramolecular parallel G4.
In series [18] the target is T5, FJG4P. Briefly: EMSA; no detectable binding; EMSA: DNA annealed in 200 mM Tris pH 7.4, 100 mM KCl, 1 mM EDTA; binding 10 min at 25 C, native PAGE; smTIRFM: 100 pM tethered DNA, 100-5000 pM protein, buffer. Conditions: protein: recombinant; tags: N-terminal FLAG-6xHis; label: 5' fluorescein; intramolecular G4, mixed topology.
Series [19] concerns the target T6, 2FJG4P. Briefly: mass photometry; higher molecular weight complexes; EMSA: DNA annealed in 200 mM Tris pH 7.4, 100 mM KCl, 1 mM EDTA; binding 10 min at 25 C, native PAGE; smTIRFM: 100 pM tethered DNA, 100-5000 pM protein, buffer. To be noted: protein: recombinant; tags: N-terminal FLAG-6xHis; G4, mixed topology.
[20] abbreviates: label: 3' 6-FAM, intramolecular parallel G4.
Setting [21] is: label: 5' fluorescein, intramolecular G4, mixed topology.

What is called Kd is the concentration at which binding is half-saturated. For “TGGCGACGGCAGCGAGGCTTAGGGTTAGGGTTAGGGTTTAGGGTTAGGGTTAGGGTTAGGGTTTAGGGTTAGGG / GCCTCGCTGCCGTCGCCA [2hTelG4 (smTIRFM tethering)]”, the figures for the Kd in series [1], in [2] and in series [3] were 1.9 nM, 14.5 nM and 4.6 nM, respectively.

B1: c-MYCG4 (smTIRFM tethering) (mixed)
DNA 1: TGGCGACGGCAGCGAGGCTGGGTGGGTAGGGTGGGTTT
DNA 2: GCCTCGCTGCCGTCGCCA
As for B1, the Kd with G4P [4] is 0.22 ± 0.02 nM; with FJG4P [5], 0.27 ± 0.03 nM; in the series with 2FJG4P [6], 0.2 ± 0.01 nM; in the series with 2G4P [7], 0.16 ± 0.01 nM.

B2: 2hTelG4 (mass photometry) (structured_DNA)
DNA: TTAGGGTTAGGGTTAGGGTTTAGGGTTAGGGTTAGGGTTAGGGTTAGGGTTTAGGGTTAGGG
Regarding B2, the binding result with 2G4P [8] and with 2FJG4P [9] was “binds” throughout.

B3: hTelG4 (smTIRFM tethering) (mixed)
DNA 1: TGGCGACGGCAGCGAGGCTTAGGGTTAGGGTTAGGGTTTAGGGTTAGGG
DNA 2: GCCTCGCTGCCGTCGCCA
On to B3, for which the Kd worked out at 32.7 ± 4.8 nM in the series with FJG4P [10], 3.4 ± 0.3 nM with 2G4P [11], 10.7 ± 1.7 nM in the series with 2FJG4P [12] and 1.6 ± 0.1 nM in the series with G4P [13].

On to TGGGTGGGTAGGGTGGGTTT (structured_DNA) [c-MYCG4 (EMSA)], for which the Kd came out at 84.1 ± 8 nM with G4P [14] (setting [20]), 130 ± 63 nM with 2FJG4P [15], 27.7 ± 4 nM with 2G4P [16] (setting [20]) and 110 ± 58.9 nM with FJG4P [17].

For TTAGGGTTAGGGTTAGGGTTTAGGGTTAGGG (structured_DNA) [hTelG4 (EMSA)], the Kd with G4P [14] (setting [21]) came to 558 ± 157 nM; with 2G4P [16] (setting [21]), 86.2 ± 6 nM. Further, the binding result with FJG4P [18] is reported as “no binding”.

TTAGGGTTAGGGTTAGGGTTTAGGGTTAGGG (structured_DNA) [hTelG4 (mass photometry)]: the binding result in the series with 2FJG4P [19] is reported as “binds”.
